Measurements from the supplement of paper PMC10065799, “High-throughput profiling of sequence recognition by tyrosine kinases and SH2 domains using bacterial peptide display” (eLife, 2023).
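Also: 11-residue human phosphosite peptides and single-mutation variants displayed on the E. coli surface, counted by deep sequencing, each peptide's frequency after selection divided by its frequency in the unselected input library; frequency after pTyr selection over input frequency; kinase dosed for 20-30% of maximal phosphorylation in three min.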

The sequences below were run against EPHB2 (UniProt P29323) (assay: phosphorylation enrichment, bacterial display (enrichment ratio); higher = better substrate or ligand; peptides without Tyr show the background).
Sequence of EPHB2 (P29323 whole entry, looked up): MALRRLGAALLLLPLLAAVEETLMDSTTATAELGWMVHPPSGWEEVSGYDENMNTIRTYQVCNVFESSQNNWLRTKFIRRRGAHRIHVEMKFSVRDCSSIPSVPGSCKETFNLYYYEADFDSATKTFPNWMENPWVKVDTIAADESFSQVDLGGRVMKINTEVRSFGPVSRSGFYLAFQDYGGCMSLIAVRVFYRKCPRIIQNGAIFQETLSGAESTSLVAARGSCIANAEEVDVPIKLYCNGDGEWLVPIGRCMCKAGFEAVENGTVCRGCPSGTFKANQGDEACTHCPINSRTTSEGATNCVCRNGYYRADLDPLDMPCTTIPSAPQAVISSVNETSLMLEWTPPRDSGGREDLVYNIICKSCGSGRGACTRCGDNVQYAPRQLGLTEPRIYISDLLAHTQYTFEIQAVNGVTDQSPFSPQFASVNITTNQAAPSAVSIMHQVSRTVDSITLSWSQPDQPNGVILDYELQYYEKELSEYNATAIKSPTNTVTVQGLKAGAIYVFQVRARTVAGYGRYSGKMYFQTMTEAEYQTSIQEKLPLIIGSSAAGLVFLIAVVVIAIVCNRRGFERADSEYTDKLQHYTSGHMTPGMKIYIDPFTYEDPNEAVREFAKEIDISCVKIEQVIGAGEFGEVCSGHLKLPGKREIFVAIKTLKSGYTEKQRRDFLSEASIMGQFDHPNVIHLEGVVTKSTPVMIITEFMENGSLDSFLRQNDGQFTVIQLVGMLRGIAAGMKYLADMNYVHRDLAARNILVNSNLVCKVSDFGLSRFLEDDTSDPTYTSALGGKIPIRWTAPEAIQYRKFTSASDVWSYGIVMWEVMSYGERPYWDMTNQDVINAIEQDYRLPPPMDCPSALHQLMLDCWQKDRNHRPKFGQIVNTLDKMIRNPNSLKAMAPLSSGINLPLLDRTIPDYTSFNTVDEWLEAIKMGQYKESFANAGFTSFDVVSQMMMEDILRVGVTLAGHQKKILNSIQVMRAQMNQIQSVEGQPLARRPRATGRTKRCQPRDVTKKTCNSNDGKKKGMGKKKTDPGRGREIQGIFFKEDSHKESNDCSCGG
For KVMANYVFKAG [MAML2_Y513_M514V_YF], the phosphorylation enrichment was 0.515.
For WGLCSYYETSK [MAGED2_Y448_R446C], the phosphorylation enrichment was 0.73.
Work on KDIENHIQDGK [RAD50_Y964_Y964H] yielded a phosphorylation enrichment of 0.542.
FHKALYTVRTY [PDE6C_Y266_S270T] showed a phosphorylation enrichment of 0.645.
With RHRSGYVLIAM [EFR3A_Y73] the phosphorylation enrichment was 0.708.
Work on AVNDFYAAKKT [CCDC178_Y422] yielded a phosphorylation enrichment of 0.372.
HSFQCYGQNEA [ENTPD3_Y262_R264Q] gave a phosphorylation enrichment of 0.452.
In the case of HSVVQYVGGVM [FGGY_Y136_L134V], the phosphorylation enrichment is reported as 0.572.
KQINDYVEKGT [SERPINA1_Y184] gave a phosphorylation enrichment of 0.431.
For HNLPIYEGFAL [ACTA1_Y168_V165L_YF], the phosphorylation enrichment was 24.3.
With KEDSAYGSQSV [NFKB2_Y868] the phosphorylation enrichment was 0.521.
For YSNVLYRPRGA [TMIGD2_Y197], the phosphorylation enrichment was 0.6.
With RELGEYALAEY [ALDH1A3_Y492] the phosphorylation enrichment was 0.785.
YTGSTYRVGDT [FN1_Y106_N104S] showed a phosphorylation enrichment of 0.453.
With GHLYAYNWISI [BEST1_Y227_D228N] the phosphorylation enrichment was 5.2.
DYYDLYGGEKK [PTPN11_Y66_F71K] showed a phosphorylation enrichment of 4.52.
PPSGEYFGQCG [TRIP6_Y275] was tested, and the phosphorylation enrichment was 0.953.
With LFLACYFIGGG [UBD_Y161_C162F] the phosphorylation enrichment was 0.612.
Work on IENKLYGTSDP [RET_Y1062_M1064T] yielded a phosphorylation enrichment of 0.544.
Sequence REEKNYKLKET [BCLAF1_Y459] has a phosphorylation enrichment of 0.799.
LYDPDFMKVIL [CYP4A22_Y104_Y104F] was tested, and the phosphorylation enrichment was 1.01.
FGLDRYQCDCT [PTGS1_Y54] showed a phosphorylation enrichment of 0.613.
In the case of QMVDMYASSYM [AVPR2_Y124_G122D], the phosphorylation enrichment is reported as 0.571.
In the case of EKIANYKEGTY [CLRN1_Y171], the phosphorylation enrichment is reported as 0.389.
HSLHDYKEALM [ADA2_Y337] was tested, and the phosphorylation enrichment was 0.448.
With TQPSPYAVYLF [RPGRIP1_Y823_R827L] the phosphorylation enrichment was 5.25.
FADIAYNYRHA [PAH_Y166_G171A] gave a phosphorylation enrichment of 0.437.
Work on LREIRYQGGNR [VWF_Y1570_V1565L] yielded a phosphorylation enrichment of 0.518.
Sequence VGIMLYGVDSR [PKD1_Y3143] has a phosphorylation enrichment of 0.626.
Sequence THPFLYLSLEI [MLH1_Y293] has a phosphorylation enrichment of 0.648.
With RELGEYGLQAY [ALDH2_Y497] the phosphorylation enrichment was 0.754.
For VPEANYTSDEE [STK33_Y439_D436E], the phosphorylation enrichment was 0.691.
Work on TKLKDYFIFNK [CCDC42_Y149_A144T_YF] yielded a phosphorylation enrichment of 0.353.

Each sequence was assayed against FGFR1 (UniProt P11362) in the same assay as above.
Sequence of FGFR1 (P11362 whole entry, looked up): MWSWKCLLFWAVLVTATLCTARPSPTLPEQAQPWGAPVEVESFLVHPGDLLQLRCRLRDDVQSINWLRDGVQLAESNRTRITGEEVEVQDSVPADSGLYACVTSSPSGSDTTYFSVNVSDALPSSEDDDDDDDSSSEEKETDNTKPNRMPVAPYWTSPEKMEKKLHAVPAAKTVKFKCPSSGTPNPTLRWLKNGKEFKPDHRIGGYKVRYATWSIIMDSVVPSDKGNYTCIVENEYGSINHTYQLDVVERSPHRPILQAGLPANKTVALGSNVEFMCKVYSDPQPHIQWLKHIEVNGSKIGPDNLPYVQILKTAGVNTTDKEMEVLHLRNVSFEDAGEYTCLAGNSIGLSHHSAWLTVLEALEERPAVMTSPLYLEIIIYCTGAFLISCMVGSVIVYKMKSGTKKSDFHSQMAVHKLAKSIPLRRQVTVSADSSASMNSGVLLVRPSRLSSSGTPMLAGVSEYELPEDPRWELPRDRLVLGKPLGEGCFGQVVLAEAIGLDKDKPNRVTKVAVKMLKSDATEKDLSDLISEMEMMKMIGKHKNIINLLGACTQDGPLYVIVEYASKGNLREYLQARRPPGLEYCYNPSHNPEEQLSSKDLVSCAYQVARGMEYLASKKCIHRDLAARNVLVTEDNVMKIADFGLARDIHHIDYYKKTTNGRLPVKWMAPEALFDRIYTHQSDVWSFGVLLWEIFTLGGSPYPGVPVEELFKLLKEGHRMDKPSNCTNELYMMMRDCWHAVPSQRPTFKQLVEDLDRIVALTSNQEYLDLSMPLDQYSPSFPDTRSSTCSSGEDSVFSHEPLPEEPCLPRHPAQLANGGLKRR
With KVMANYVFKAG [MAML2_Y513_M514V_YF] the phosphorylation enrichment was 0.459.
For WGLCSYYETSK [MAGED2_Y448_R446C], the phosphorylation enrichment was 0.76.
With KDIENHIQDGK [RAD50_Y964_Y964H] the phosphorylation enrichment was 0.41.
FHKALYTVRTY [PDE6C_Y266_S270T] showed a phosphorylation enrichment of 0.655.
Sequence RHRSGYVLIAM [EFR3A_Y73] has a phosphorylation enrichment of 0.737.
AVNDFYAAKKT [CCDC178_Y422] gave a phosphorylation enrichment of 0.648.
HSFQCYGQNEA [ENTPD3_Y262_R264Q] gave a phosphorylation enrichment of 0.604.
Sequence HSVVQYVGGVM [FGGY_Y136_L134V] has a phosphorylation enrichment of 0.447.
For KQINDYVEKGT [SERPINA1_Y184], the phosphorylation enrichment was 0.402.
With HNLPIYEGFAL [ACTA1_Y168_V165L_YF] the phosphorylation enrichment was 0.677.
With KEDSAYGSQSV [NFKB2_Y868] the phosphorylation enrichment was 0.428.
In the case of YSNVLYRPRGA [TMIGD2_Y197], the phosphorylation enrichment is reported as 0.784.
In the case of RELGEYALAEY [ALDH1A3_Y492], the phosphorylation enrichment is reported as 0.694.
For YTGSTYRVGDT [FN1_Y106_N104S], the phosphorylation enrichment was 0.726.
Work on GHLYAYNWISI [BEST1_Y227_D228N] yielded a phosphorylation enrichment of 3.67.
With DYYDLYGGEKK [PTPN11_Y66_F71K] the phosphorylation enrichment was 15.8.
PPSGEYFGQCG [TRIP6_Y275] was tested, and the phosphorylation enrichment was 1.23.
Work on LFLACYFIGGG [UBD_Y161_C162F] yielded a phosphorylation enrichment of 0.453.
Sequence IENKLYGTSDP [RET_Y1062_M1064T] has a phosphorylation enrichment of 0.527.
REEKNYKLKET [BCLAF1_Y459] showed a phosphorylation enrichment of 0.733.
LYDPDFMKVIL [CYP4A22_Y104_Y104F] gave a phosphorylation enrichment of 0.562.
Sequence FGLDRYQCDCT [PTGS1_Y54] has a phosphorylation enrichment of 0.587.
QMVDMYASSYM [AVPR2_Y124_G122D] was tested, and the phosphorylation enrichment was 0.579.
With EKIANYKEGTY [CLRN1_Y171] the phosphorylation enrichment was 0.45.
With HSLHDYKEALM [ADA2_Y337] the phosphorylation enrichment was 0.371.
TQPSPYAVYLF [RPGRIP1_Y823_R827L] gave a phosphorylation enrichment of 1.34.
Sequence FADIAYNYRHA [PAH_Y166_G171A] has a phosphorylation enrichment of 0.322.
For LREIRYQGGNR [VWF_Y1570_V1565L], the phosphorylation enrichment was 0.671.
Sequence VGIMLYGVDSR [PKD1_Y3143] has a phosphorylation enrichment of 0.592.
THPFLYLSLEI [MLH1_Y293] was tested, and the phosphorylation enrichment was 0.622.
In the case of RELGEYGLQAY [ALDH2_Y497], the phosphorylation enrichment is reported as 0.676.
VPEANYTSDEE [STK33_Y439_D436E] showed a phosphorylation enrichment of 0.607.
Sequence TKLKDYFIFNK [CCDC42_Y149_A144T_YF] has a phosphorylation enrichment of 1.05.
